Laboratory results: PMC4354016, “Centromeric binding and activity of Protein Phosphatase 4” (Nature Communications, 2015)

T1: recombinant Flfl^1–168 (untagged) (Drosophila melanogaster, UniProt Q9VFS5 1-168)
T1 construct: pETDuet-1 (MCS1), TEV site between His tag and Flfl; source: E. coli Rosetta2(DE3)pLysS, purified (Ni-NTA, TEV cleavage, re-incubation with Ni-NTA); not shown: 6xHis, N-terminal, cleaved
T1 sequence (looked up): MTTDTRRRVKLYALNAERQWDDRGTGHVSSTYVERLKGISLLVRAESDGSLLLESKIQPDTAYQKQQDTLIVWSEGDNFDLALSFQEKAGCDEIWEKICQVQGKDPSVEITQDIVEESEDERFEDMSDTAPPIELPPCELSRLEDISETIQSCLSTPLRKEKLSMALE

T2: Flfl^1–122 (Drosophila melanogaster, UniProt Q9VFS5 1-122)
T2 construct: Falafel (Flfl) residues 1-122, holds the EVH1 domain; residues 4-114 are in the final model; also called Falafel (1–122); His::TEV::Flfl^1–122aa; source: E. coli BL21 (DE3) RIL, purified (HisTrap, TEV cleavage, anion exchange, SEC); not shown: 6xHis, N-terminal, cleaved
T2 sequence (looked up): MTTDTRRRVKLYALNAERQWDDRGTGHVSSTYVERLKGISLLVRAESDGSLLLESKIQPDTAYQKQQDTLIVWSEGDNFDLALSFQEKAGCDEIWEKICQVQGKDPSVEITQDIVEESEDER


Tests used:
Conditions in all cases: both partners purified
[1] = molecular target: T1, recombinant Flfl^1–168 (untagged); experiment: SEC; Flfl^1–168 and CENP-C^FBD mixed ~1:1 molar ratio, 16 h on ice, Superdex 200; fractions on SDS-PAGE, Coomassie
Flfl^1–122 = molecular target: T2, Flfl^1–122; experiment: crystal structure; Flfl^1–122 at 22 mg/ml incubated overnight with FIM peptide 1:1.3, sitting drop, ammonium sulfate; 1.5 Å
[2] = molecular target: T1, recombinant Flfl^1–168 (untagged); experiment: peptide or protein array; substitution array: every residue of the 19-mer FIM replaced by the other amino acids, on cellulose membrane; 100 nM untagged Flfl^1–168, 4 °C overnight; anti-Flfl detection

| binding result [1] | binding result (Flfl^1–122) | binding result [2] | Binder |
| --- | --- | --- | --- |
| binds |  |  | recombinant CENP-C^FBD (untagged) (domain or fragment, Drosophila melanogaster, UniProt Q9VHP9 1002-1093, looked up, pETDuet-1 (MCS1), TEV site between His tag and FBD; also called His::TEV::CENP-C^FBD; source: E. coli Rosetta2(DE3)pLysS, purified (Ni-NTA, TEV cleavage, re-incubation with Ni-NTA); not shown: 6xHis, N-terminal, cleaved) IDQNSDDVPSRNPSPSRTLLSDDVPSTSRAALEFLQRSQNMSKSRPPDESSADVVFKKPLAPAPRAKSKKGKSEVDKLKLAKMPVEAEELNT |
|  | binds | binds | PDESSADVVFKKPLAPAPR (source: synthetic peptide (in solution for crystallisation; spotted onto a cellulose membrane for the substitution array)) [CENP-C^FIM peptide] |
